Data on one molecule can be found in patent US20260184748A1 (University of Pennsylvania, published 2026).

Where no end group is shown, it is not given here.

Among the targets are NPBWR2 (UniProt P48146 1-333); PTGFR (UniProt P43088 1-359); C5L2 (UniProt Q9P296 1-337); EBI2 (UniProt P32249 1-361); F2RL1 (UniProt P55085 26-397, limits assumed).
Holding throughout (assay): cell-based or functional assay
Another assay concerns the target T1, PTGER3 (UniProt P43115 1-390, limits assumed).
T1 sequence (looked up): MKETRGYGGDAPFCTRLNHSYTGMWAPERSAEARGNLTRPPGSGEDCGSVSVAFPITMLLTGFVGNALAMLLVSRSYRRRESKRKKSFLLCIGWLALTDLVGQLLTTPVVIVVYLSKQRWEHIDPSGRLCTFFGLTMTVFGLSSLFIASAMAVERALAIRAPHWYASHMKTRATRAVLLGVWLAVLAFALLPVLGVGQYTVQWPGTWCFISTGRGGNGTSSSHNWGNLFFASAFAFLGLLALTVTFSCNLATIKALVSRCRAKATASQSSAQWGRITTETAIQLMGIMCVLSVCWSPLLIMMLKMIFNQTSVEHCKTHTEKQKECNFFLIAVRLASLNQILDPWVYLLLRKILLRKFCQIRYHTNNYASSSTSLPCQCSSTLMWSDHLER

A further assay addresses T2, CCR7 (UniProt P32248 25-378).
T2 sequence (looked up): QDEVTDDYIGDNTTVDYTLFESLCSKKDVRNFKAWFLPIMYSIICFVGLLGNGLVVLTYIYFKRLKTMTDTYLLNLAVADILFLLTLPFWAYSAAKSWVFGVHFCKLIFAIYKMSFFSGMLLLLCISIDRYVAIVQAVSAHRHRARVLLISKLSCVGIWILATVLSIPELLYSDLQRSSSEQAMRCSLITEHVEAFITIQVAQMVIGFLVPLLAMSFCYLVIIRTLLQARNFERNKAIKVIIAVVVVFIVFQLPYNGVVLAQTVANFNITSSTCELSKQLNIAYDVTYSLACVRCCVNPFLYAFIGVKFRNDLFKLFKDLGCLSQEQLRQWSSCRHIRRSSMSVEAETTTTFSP

The next assay concerns the target T3, CMKLR1 (UniProt Q99788 1-373, limits assumed).
T3 sequence (looked up): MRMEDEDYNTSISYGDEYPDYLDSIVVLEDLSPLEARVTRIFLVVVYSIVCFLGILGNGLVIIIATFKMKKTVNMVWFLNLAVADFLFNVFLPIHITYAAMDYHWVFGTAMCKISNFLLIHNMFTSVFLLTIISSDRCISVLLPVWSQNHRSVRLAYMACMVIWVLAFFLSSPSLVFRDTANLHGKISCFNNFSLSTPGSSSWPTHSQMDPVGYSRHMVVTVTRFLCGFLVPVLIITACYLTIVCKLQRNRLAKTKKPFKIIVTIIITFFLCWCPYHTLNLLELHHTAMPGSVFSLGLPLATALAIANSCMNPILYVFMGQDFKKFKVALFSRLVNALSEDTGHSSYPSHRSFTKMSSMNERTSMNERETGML

For the next assay, the target named is T4, DRD4 (UniProt P21917 1-419, limits assumed).
T4 sequence (looked up): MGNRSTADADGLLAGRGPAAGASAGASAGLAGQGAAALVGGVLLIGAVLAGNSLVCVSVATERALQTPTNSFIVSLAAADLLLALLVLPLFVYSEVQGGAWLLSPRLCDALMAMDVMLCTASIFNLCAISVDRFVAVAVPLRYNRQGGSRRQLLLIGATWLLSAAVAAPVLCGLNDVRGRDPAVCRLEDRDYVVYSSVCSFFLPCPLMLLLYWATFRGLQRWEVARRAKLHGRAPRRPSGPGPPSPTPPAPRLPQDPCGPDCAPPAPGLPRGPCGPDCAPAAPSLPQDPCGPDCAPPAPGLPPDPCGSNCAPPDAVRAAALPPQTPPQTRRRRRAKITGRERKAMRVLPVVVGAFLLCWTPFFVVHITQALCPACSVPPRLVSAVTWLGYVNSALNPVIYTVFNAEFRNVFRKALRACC

For a further assay, the target named is T5, GIPR (UniProt P48546 22-466).
T5 sequence (looked up): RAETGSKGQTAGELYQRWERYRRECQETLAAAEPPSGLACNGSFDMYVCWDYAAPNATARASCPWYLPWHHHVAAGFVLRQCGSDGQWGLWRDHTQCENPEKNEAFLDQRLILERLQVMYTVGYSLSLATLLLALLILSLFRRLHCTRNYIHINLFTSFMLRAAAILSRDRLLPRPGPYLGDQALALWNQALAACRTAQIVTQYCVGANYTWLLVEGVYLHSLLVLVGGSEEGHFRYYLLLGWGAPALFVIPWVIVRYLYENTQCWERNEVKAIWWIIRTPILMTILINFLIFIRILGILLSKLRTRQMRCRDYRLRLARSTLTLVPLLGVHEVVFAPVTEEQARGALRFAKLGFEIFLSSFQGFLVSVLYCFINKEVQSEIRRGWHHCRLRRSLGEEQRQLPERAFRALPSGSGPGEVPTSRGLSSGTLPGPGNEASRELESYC

The target of another assay is T6, GLP2R (UniProt O95838 1-553, limits assumed).
T6 sequence (looked up): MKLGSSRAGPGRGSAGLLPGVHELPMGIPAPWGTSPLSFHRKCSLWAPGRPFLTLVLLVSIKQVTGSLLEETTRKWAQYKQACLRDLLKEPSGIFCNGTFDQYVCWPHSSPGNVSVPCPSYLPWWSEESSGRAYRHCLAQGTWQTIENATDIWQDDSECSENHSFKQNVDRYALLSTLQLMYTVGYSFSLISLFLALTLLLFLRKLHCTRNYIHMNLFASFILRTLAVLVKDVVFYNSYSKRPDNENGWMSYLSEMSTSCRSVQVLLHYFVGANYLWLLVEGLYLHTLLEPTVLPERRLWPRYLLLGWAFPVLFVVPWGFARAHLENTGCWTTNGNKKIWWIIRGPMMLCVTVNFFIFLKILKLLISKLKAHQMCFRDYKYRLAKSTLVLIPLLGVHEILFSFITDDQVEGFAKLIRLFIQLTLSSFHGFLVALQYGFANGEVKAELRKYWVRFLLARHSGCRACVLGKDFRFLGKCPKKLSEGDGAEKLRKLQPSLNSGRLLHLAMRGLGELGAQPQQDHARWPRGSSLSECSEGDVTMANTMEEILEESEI

Sequence of PTGFR (P43088 whole entry): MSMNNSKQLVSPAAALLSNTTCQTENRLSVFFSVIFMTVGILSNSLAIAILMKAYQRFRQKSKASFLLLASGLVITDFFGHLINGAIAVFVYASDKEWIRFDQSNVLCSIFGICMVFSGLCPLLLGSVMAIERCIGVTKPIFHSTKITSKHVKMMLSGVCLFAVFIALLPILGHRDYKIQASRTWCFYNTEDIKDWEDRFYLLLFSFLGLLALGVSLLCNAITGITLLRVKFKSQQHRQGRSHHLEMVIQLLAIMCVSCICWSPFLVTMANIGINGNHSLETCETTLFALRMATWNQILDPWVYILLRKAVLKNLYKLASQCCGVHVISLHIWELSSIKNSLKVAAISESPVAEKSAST
Sequence of EBI2 (P32249 whole entry): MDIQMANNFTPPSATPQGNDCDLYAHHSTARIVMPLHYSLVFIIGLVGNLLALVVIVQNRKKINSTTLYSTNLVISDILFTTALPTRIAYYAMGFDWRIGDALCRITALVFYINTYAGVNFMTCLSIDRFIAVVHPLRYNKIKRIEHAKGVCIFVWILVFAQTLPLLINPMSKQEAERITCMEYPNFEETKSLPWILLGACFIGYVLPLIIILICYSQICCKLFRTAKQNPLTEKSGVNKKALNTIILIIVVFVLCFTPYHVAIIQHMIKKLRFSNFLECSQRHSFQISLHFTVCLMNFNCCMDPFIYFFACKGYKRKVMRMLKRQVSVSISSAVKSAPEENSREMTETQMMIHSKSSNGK
Sequence of C5L2 (Q9P296 whole entry): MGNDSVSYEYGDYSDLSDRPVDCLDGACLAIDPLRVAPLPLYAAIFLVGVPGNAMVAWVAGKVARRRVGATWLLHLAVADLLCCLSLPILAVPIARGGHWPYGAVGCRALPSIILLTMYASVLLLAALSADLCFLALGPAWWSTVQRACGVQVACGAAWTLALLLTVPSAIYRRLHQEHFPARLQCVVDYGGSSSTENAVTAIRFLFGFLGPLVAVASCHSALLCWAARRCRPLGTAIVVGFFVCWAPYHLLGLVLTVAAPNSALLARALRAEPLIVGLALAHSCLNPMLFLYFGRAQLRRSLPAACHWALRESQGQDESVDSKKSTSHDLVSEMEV
Sequence of NPBWR2 (P48146 whole entry): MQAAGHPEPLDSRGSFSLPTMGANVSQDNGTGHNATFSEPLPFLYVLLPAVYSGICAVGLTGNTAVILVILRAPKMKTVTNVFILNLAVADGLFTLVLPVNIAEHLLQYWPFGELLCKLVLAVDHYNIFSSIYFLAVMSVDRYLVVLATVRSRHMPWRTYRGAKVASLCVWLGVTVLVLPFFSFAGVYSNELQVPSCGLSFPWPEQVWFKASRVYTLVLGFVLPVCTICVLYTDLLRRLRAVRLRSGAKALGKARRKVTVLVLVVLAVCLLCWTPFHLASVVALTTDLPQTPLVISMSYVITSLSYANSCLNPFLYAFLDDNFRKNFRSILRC

Take QATVGDVNTDRPGLLDLK (also: synthesised on Rink amide resin, C-terminal amide not given here outright) [octadecaneuropeptide (ODN)]: the “% Activity, arrestin, antagonist mode, 2.5 uM” value in the assay with NPBWR2 is -1.1%; with PTGER3, -10%; with PTGFR, -8.4%; with C5L2 it was 3.5%; in the assay with CCR7, -19.2%; with CMKLR1, -18.3%. In addition, the “% Activity, arrestin, antagonist mode, 2.5 uM” value with DRD4 was 2.5%; with EBI2, -27.3%; in the assay with F2RL1, -9.2%; with GIPR it was -18.9%; in the assay with GLP2R it was -15.4%.
